From publication PMC11005723, “Development of Complementary Photo‐arginine/lysine to Promote Discovery of Arg/Lys hPTMs Interactomes” (Advanced Science, 2024)
Non-standard residues stand in square brackets, D forms with d. No end group written: not given here. Arg(Me2a) = CN(C)C(=N)NCCC[C@H](N)C(=O)O

Key:
Assay in all cases: ITC; 25 °C, MicroCal PEAQ-ITC; protein in the cell titrated with 19 injections of peptide
Settings in all cases: both partners purified
RBBP4 (1‐ 425) = biological target: T1, RBBP4 (1‐ 425) (UniProt Q09028 1-425)
T1 construct: RBBP4 residues 1-425; source: Sf9 (baculovirus), purified (Ni-NTA, Resource Q, Superdex 75)

RBBP7 (1‐ 425) = biological target: T2, RBBP7 (1‐ 425) (UniProt Q16576 1-425)
T2 construct: RBBP7 residues 1-425; source: Sf9 (baculovirus), purified (Ni-NTA, Resource Q, Superdex 75)

[1] = biological target: T3, PHD domain of UHRF1 (UHRF1PHD) (structural Zn2+ ions bound; limits are not given, so they follow the usual UHRF1 PHD structural constructs (about 298-366), which include the N-terminal pre-PHD zinc site; the UniProt PHD-type featu)
T3 chain: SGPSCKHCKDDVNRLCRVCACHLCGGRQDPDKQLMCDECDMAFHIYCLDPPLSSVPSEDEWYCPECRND

T2 sequence (Q16576 whole entry, the tested form may be a part): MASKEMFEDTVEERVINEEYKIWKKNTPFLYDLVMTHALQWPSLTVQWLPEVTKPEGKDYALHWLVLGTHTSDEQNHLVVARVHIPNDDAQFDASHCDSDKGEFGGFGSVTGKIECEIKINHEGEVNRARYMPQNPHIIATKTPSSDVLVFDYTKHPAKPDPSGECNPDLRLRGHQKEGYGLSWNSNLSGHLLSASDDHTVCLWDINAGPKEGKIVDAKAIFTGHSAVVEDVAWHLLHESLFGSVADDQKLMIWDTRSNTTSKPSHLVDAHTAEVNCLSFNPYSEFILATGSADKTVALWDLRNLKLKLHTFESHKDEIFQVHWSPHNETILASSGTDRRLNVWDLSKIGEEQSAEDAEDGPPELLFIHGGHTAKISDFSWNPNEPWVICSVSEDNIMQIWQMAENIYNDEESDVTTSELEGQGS
T1 sequence (Q09028 whole entry, the tested form may be a part): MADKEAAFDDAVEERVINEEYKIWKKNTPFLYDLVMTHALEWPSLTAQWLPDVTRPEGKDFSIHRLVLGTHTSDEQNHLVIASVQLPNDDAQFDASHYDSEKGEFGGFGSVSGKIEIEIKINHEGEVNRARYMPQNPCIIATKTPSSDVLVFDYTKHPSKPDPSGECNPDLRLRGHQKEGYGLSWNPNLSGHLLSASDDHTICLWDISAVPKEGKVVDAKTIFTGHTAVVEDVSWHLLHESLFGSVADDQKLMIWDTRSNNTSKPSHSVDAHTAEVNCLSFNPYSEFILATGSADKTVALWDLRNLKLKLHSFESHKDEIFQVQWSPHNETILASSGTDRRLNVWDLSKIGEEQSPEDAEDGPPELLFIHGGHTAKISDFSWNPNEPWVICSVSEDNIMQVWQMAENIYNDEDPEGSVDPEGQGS

B1: native H3R2me2a peptide (H3_(1‐15) without diazirine and biotin) (peptide)
peptide: A[Arg(Me2a)]TKQTARKSTGGKA-NH2
notes: Rink amide resin was used for all peptides, so the C-terminus is probably an amide; source: synthetic peptide (Fmoc solid-phase synthesis)
Kd (RBBP4 (1‐ 425)): ~1.2 µM
Kd (RBBP7 (1‐ 425)): 15.4 µM

B2: native H3R2 peptide (H3_(1‐15) without diazirine and biotin) (peptide)
peptide: ARTKQTARKSTGGKA-NH2
notes: Rink amide resin was used for all peptides, so the C-terminus is probably an amide; also called native H3_(1‐15) peptide; source: synthetic peptide (Fmoc solid-phase synthesis)
Kd [1]: 2.3 µM
